Starred links: 1 amine or outer side, 2 acyl side, 3 side chain; linkers in the order of their positions; H or OH if unused. Positions of bridges follow the written chain, without caps; N, C: chain ends. Non-standard residues stand in square brackets, D forms with d. TATB = O=C(C[*:1])N1CN(C(=O)C[*:2])CN(C(=O)C[*:3])C1; Phe(4-CONH2) = NC(=O)c1ccc(C[C@H](N)C(=O)O)cc1; Phe(4-COOH) = N[C@@H](Cc1ccc(C(=O)O)cc1)C(=O)O; Gla = N[C@@H](CC(C(=O)O)C(=O)O)C(=O)O; Hyp = O=C(O)[C@@H]1C[C@@H](O)CN1; Tle = CC(C)(C)[C@H](N)C(=O)O
Biological target: T1, Recombinant human His-tagged TfR1 (a.a. 89-760) (ACRO Biosystems, CD1-H5243) (human, UniProt P02786 89-760)
T1 construct: range 89-760; Bought protein; Captured and amine-coupled on an NTA chip; also called human TfR1; transferrin receptor 1; not shown: His tag (printed 'Hiss-tagged')
Assay: SPR (Biacore), TfR1 captured/coupled on NTA chip, peptide as analyte

T1 sequence (P02786 89-760 limits assumed): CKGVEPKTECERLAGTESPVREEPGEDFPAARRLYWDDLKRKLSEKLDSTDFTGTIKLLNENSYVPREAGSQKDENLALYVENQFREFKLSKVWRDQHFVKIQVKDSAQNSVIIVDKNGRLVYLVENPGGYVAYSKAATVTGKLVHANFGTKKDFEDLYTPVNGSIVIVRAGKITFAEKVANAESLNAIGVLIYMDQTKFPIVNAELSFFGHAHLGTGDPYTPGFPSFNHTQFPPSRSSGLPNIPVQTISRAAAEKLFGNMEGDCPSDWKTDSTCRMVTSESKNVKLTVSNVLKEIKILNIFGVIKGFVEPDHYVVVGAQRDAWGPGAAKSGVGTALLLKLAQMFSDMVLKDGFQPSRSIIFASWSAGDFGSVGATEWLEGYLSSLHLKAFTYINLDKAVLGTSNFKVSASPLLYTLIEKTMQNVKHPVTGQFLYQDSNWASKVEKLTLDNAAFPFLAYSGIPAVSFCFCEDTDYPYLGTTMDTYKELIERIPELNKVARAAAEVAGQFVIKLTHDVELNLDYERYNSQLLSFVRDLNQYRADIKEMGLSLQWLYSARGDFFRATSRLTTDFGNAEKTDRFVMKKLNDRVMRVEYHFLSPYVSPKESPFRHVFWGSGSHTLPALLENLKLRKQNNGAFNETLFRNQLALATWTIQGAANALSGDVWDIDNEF

| Binder | Kd |
| --- | --- |
| Ac-CP[Hyp][Gla]AYLGC[Tle]SYCEPW-NH2 (linker 1-9-13 via TATB; SMILES CC(=O)N[C@H]1CSCC(=O)N2CN3CN(C2)C(=O)CSC[C@@H](C(=O)N[C@@H](CCC(=O)O)C(=O)N2CCC[C@H]2C(=O)N[C@@H](Cc2c[nH]c4ccccc24)C(N)=O)NC(=O)[C@H](Cc2ccc(O)cc2)NC(=O)[C@H](CO)NC(=O)[C@H](C(C)(C)C)NC(=O)[C@H](CSCC3=O)NC(=O)CNC(=O)[C@H](CC(C)C)NC(=O)[C@H](Cc2ccc(O)cc2)NC(=O)[C@H](C)NC(=O)[C@H](CC(C(=O)O)C(=O)O)NC(=O)[C@@H]2C[C@@H](O)CN2C(=O)[C@@H]2CCCN2C1=O, Bicyclic peptide) [BCY23217] | 0.117 µM |
| CPXDAYLGCXSXCEPW (CP[HyP]DAYLGC[tBuGly]S[DOPA]CEPW: HyP at 3, tBuGly at 10, DOPA at 12; N-terminal acetyl; C-terminal CONH2; Cys 1, 9, 13 bonded to TATB scaffold, Bicyclic peptide) [BCY23200] | 0.0095 µM |
| CPXDAYLGCXSXCEPW (CP[HyP]DAYLGC[tBuGly]S[pCoPhe]CEPW: HyP at 3, tBuGly at 10, pCoPhe at 12; N-terminal acetyl; C-terminal CONH2; Cys 1, 9, 13 bonded to TATB scaffold, Bicyclic peptide) [BCY23202] | 0.023 µM |
| CPXDAYLGCXXYCEPW (CP[HyP]DAYLGC[tBuGly][HSer]YCEPW: HyP at 3, tBuGly at 10, HSer at 11; N-terminal acetyl; C-terminal CONH2; Cys 1, 9, 13 bonded to TATB scaffold, Bicyclic peptide) [BCY23224] | 1.14 µM |
| CPXDAYLGCXSYCEPX (CP[HyP]DAYLGC[tBuGly]SYCEP[pCoPhe]: HyP at 3, tBuGly at 10, pCoPhe at 16; N-terminal acetyl; C-terminal CONH2; Cys 1, 9, 13 bonded to TATB scaffold, Bicyclic peptide) [BCY23210] | 0.0086 µM |
| CPXDAXLGCXSYCEPW (CP[HyP]DA[DOPA]LGC[tBuGly]SYCEPW: HyP at 3, DOPA at 6, tBuGly at 10; N-terminal acetyl; C-terminal CONH2; Cys 1, 9, 13 bonded to TATB scaffold, Bicyclic peptide) [BCY23185] | 0.012 µM |
| CPXDAYLGCXSYCXPW (CP[HyP]DAYLGC[tBuGly]SYC[Gla]PW: HyP at 3, tBuGly at 10, Gla at 14; N-terminal acetyl; C-terminal CONH2; Cys 1, 9, 13 bonded to TATB scaffold, Bicyclic peptide) [BCY23231] | 0.025 µM |
| Ac-CP[Hyp]DA[Phe(4-COOH)]LGC[Tle]SYCEPW-NH2 (linker 1-9-13 via TATB; SMILES CC(=O)N[C@H]1CSCC(=O)N2CN3CN(C2)C(=O)CSC[C@@H](C(=O)N[C@@H](CCC(=O)O)C(=O)N2CCC[C@H]2C(=O)N[C@@H](Cc2c[nH]c4ccccc24)C(N)=O)NC(=O)[C@H](Cc2ccc(O)cc2)NC(=O)[C@H](CO)NC(=O)[C@H](C(C)(C)C)NC(=O)[C@H](CSCC3=O)NC(=O)CNC(=O)[C@H](CC(C)C)NC(=O)[C@H](Cc2ccc(C(=O)O)cc2)NC(=O)[C@H](C)NC(=O)[C@H](CC(=O)O)NC(=O)[C@@H]2C[C@@H](O)CN2C(=O)[C@@H]2CCCN2C1=O, Bicyclic peptide) [BCY23187] | 0.038 µM |
| CPXDAYLGCXSYCEPX (CP[HyP]DAYLGC[tBuGly]SYCEP[hTyr]: HyP at 3, tBuGly at 10, hTyr at 16; N-terminal acetyl; C-terminal CONH2; Cys 1, 9, 13 bonded to TATB scaffold, Bicyclic peptide) [BCY23211] | 0.0077 µM |
| CPXDAYLGCXSYCEPX (CP[HyP]DAYLGC[tBuGly]SYCEP[pCaPhe]: HyP at 3, tBuGly at 10, pCaPhe at 16; N-terminal acetyl; C-terminal CONH2; Cys 1, 9, 13 bonded to TATB scaffold, Bicyclic peptide) [BCY23209] | 0.0056 µM |
| CPXDAXLGCXSYCEPW (CP[HyP]DA[hTyr]LGC[tBuGly]SYCEPW: HyP at 3, hTyr at 6, tBuGly at 10; N-terminal acetyl; C-terminal CONH2; Cys 1, 9, 13 bonded to TATB scaffold, Bicyclic peptide) [BCY23188] | 0.109 µM |
| Ac-CP[Hyp]DA[Phe(4-CONH2)]LGC[Tle]SYCEPW-NH2 (linker 1-9-13 via TATB; SMILES CC(=O)N[C@H]1CSCC(=O)N2CN3CN(C2)C(=O)CSC[C@@H](C(=O)N[C@@H](CCC(=O)O)C(=O)N2CCC[C@H]2C(=O)N[C@@H](Cc2c[nH]c4ccccc24)C(N)=O)NC(=O)[C@H](Cc2ccc(O)cc2)NC(=O)[C@H](CO)NC(=O)[C@H](C(C)(C)C)NC(=O)[C@H](CSCC3=O)NC(=O)CNC(=O)[C@H](CC(C)C)NC(=O)[C@H](Cc2ccc(C(N)=O)cc2)NC(=O)[C@H](C)NC(=O)[C@H](CC(=O)O)NC(=O)[C@@H]2C[C@@H](O)CN2C(=O)[C@@H]2CCCN2C1=O, Bicyclic peptide) [BCY23186] | 0.027 µM |
| CPXDAYLGCXSXCEPW (CP[HyP]DAYLGC[tBuGly]S[hTyr]CEPW: HyP at 3, tBuGly at 10, hTyr at 12; N-terminal acetyl; C-terminal CONH2; Cys 1, 9, 13 bonded to TATB scaffold, Bicyclic peptide) [BCY23203] | 0.283 µM |
| CXXDAYLGCXSYCEPW (C[Cis-HyP][HyP]DAYLGC[tBuGly]SYCEPW: Cis-HyP at 2, HyP at 3, tBuGly at 10; N-terminal acetyl; C-terminal CONH2; Cys 1, 9, 13 bonded to TATB scaffold, Bicyclic peptide) [BCY23182] | 0.022 µM |
| CPXDAYLGCXSYCEXW (CP[HyP]DAYLGC[tBuGly]SYCE[Oxa]W: HyP at 3, tBuGly at 10, Oxa at 15; N-terminal acetyl; C-terminal CONH2; Cys 1, 9, 13 bonded to TATB scaffold, Bicyclic peptide) [BCY23205] | 0.011 µM |
